Test results: the Immune Epitope Database (IEDB)

Assays:
[1] = target: HLA-A*02:06; assay: IEDB peptide-MHC binding, purified MHC/competitive/fluorescence; filed as Kd, often an IC50 or EC50 that approximates it; ≥ and ≤ were set here for values at or beyond the usual limits of such assays; details: source organism: Salmonella enterica subsp. enterica serovar Typhi
[2] = target: HLA-B*27:05; assay: as above; details: source organism: Salmonella enterica subsp. enterica serovar Typhi
[3] = target: HLA-B*38:01; assay: as above; details: source organism: Salmonella enterica subsp. enterica serovar Typhi
[4] = target: HLA-A*26:01; assay: as above
[5] = target: HLA-A*03:01; assay: as above; details: source organism: Salmonella enterica subsp. enterica serovar Typhi
[6] = target: HLA-A*30:01; assay: as above
[7] = target: HLA-B*15:01; assay: as above
[8] = target: HLA-B*15:09; assay: as above; details: source organism: Salmonella enterica subsp. enterica serovar Typhi
[9] = target: HLA-B*48:01; assay: as above; details: source organism: Salmonella enterica subsp. enterica serovar Typhi
[10] = target: HLA-A*02:01; assay: as above; details: source organism: Salmonella enterica subsp. enterica serovar Typhi
[11] = target: HLA-B*57:01; assay: as above
[12] = target: HLA-B*15:17; assay: as above
[13] = target: HLA-B*58:01; assay: as above; details: source organism: Salmonella enterica subsp. enterica serovar Typhi
[14] = target: HLA-B*08:01; assay: as above; details: source organism: Salmonella enterica subsp. enterica serovar Typhi
[15] = target: HLA-A*69:01; assay: as above; details: source organism: Salmonella enterica subsp. enterica serovar Typhi
[16] = target: HLA-B*40:01; assay: as above; details: source organism: Salmonella enterica subsp. enterica serovar Typhi
[17] = target: HLA-A*11:01; assay: as above
[18] = target: HLA-A*01:01; assay: as above
[19] = target: HLA-A*02:03; assay: as above; details: source organism: Salmonella enterica subsp. enterica serovar Typhi
[20] = target: HLA-A*31:01; assay: as above; details: source organism: Salmonella enterica subsp. enterica serovar Typhi
[21] = target: HLA-B*08:03; assay: IEDB peptide-MHC binding, purified MHC/direct/fluorescence; filed as Kd, often an IC50 or EC50 that approximates it; ≥ and ≤ were set here for values at or beyond the usual limits of such assays; details: source organism: Bacillus cereus H3081.97
[22] = target: HLA-B*39:01; assay: IEDB peptide-MHC binding, purified MHC/competitive/fluorescence; filed as Kd, often an IC50 or EC50 that approximates it; ≥ and ≤ were set here for values at or beyond the usual limits of such assays; details: source organism: Human immunodeficiency virus 1
[23] = target: HLA-B*08:02; assay: as above; details: source organism: Human immunodeficiency virus 1
[24] = source organism: Salmonella enterica subsp. enterica serovar Typhi
[25] = source organism: Human immunodeficiency virus 1

MSAIVSCRY
Kd [1]: ≥ 20 µM
Kd [2]: ≥ 20 µM
Kd [3]: ≥ 20 µM
Kd [4, 24]: 0.235 µM
Kd [5]: 0.882 µM
Kd [6, 24]: 1.4 µM
Kd [7, 24]: 0.0512 µM
Kd [8]: ≥ 20 µM
Kd [9]: ≥ 20 µM
Kd [10]: ≥ 20 µM
Kd [11, 24]: 0.237 µM
Kd [12, 24]: 0.0024 µM
Kd [13]: 0.0275 µM
Kd [14]: ≥ 20 µM
Kd [15]: ≥ 20 µM
Kd [16]: ≥ 20 µM
Kd [17, 24]: ≥ 20 µM
Kd [18, 24]: 0.004 µM
Kd [19]: ≥ 20 µM
Kd [20]: ≥ 20 µM

FPKVRAQEL
Kd [21]: 0.209 µM

GTEEIRSLY
Kd [4, 25]: 0.429 µM
Kd [6, 25]: 13 µM
Kd [7, 25]: ≥ 20 µM
Kd [22]: ≥ 20 µM
Kd [11, 25]: ≥ 20 µM
Kd [12, 25]: 0.0605 µM
Kd [17, 25]: ≥ 20 µM
Kd [18, 25]: 0.012 µM
Kd [23]: ≥ 20 µM
